Experimental data taken from the supplement of paper PMC10567573.

Assay: protein stability index of a GFP-peptide fusion (GPS, HEK-293T) (PSI 1-6); higher = more stable
Conditions: c terminus: native
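Note: lentivirally expressed fusion library, cells FACS-sorted into six equal-sized GFP/DsRed ratio bins, PSI computed from sequencing read fractions per bin weighted by bin number.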

CQPISFSGFGAEDDDLGGLGLGPH [POLD2 addH]
protein stability index (parent: NP_006221.1): 2.24

HSLRAVSTDPPHHDHHDEFCLMPS [BEX2 addS]
protein stability index (parent: NP_116010.1): 3.84

LPALFTDLYSQEITAEEAREALPH [SNF8 addH]
protein stability index (parent: NP_009172.2): 4.88

DGWIRVSSDNVADLHEKYSGSTPH [PSMB5 addH]
protein stability index (parent: NP_002788.1): 3.83

CQPISFSGFGAEDDDLGGLGLGPS [POLD2 addS]
protein stability index (parent: NP_006221.1): 2.6

EQRNSRWNTVLRAVKAKTHHLEPS [TRPA1 addS]
protein stability index (parent: NP_015628.1): 4.6

LPALFTDLYSQEITAEEAREALPS [SNF8 addS]
protein stability index (parent: NP_009172.2): 4.4

EQRNSRWNTVLRAVKAKTHHLEPH [TRPA1 addH]
protein stability index (parent: NP_015628.1): 5.05

DGWIRVSSDNVADLHEKYSGSTPS [PSMB5 addS]
protein stability index (parent: NP_002788.1): 3.98
